Measured values from patent publication US20180258158A1 (Bristol-Myers Squibb, published 2018).
Residue numbers refer to the chain shown, from its start. Names and notes keep the numbering of the source. Like-named read-outs stand apart in the source and are kept apart here. Each block holds one binder with its values, some of them ahead of it.

Legend:
[1] = target: T1, mouse serum albumin (MSA), full length (mouse, UniProt P07724 25-608); assay: direct binding ELISA, coated MSA, anti-His-HRP; parameters: unit not given here
T1 construct: mature; Immobilized on CM5 chip (SPR) or coated on plates (ELISA); also called mouse albumin; murine serum albumin
Target sequence in this assay (P07724 25-608): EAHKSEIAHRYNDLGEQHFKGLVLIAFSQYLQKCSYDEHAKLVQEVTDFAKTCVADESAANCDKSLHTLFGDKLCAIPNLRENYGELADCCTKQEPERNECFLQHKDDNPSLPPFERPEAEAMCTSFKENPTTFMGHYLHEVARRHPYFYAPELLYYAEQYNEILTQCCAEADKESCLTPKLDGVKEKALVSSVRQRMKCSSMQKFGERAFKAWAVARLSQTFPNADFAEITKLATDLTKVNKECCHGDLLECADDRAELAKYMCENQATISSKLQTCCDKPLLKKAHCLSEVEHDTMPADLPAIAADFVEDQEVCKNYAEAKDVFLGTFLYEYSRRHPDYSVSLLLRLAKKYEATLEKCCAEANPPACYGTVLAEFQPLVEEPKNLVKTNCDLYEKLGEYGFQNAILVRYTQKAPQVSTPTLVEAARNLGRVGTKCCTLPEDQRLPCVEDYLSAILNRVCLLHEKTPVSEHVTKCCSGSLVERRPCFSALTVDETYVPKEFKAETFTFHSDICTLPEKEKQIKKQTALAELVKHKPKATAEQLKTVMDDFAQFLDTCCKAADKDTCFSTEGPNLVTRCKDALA

[2] = target: T1, mouse serum albumin (MSA), full length; assay: SPR off-rate ratio to parent ADX_7016_A01, MSA, 25 C
Procedure: (§1) Measurements were conducted by SPR and ELISA. SPR was conducted as follows. Full length HSA or mouse albumin was immobilized on a Biacore T series CM5 chip at 15 ug/mL in 10 mM acetate buffer (pH 5.0) buffer using standard NHS/EDC coupling, to a surface density of approximately 1000-1100 RU. For off-rate measurements at 25° C., PKE Adnectins were applied as analytes at 500 nM in HBS-P+(0.01 M HEPES pH 7.4, 0.15 M NaCl, 0.005% v/v Surfactant P20) running buffer at a flow rate of 20ul/min for 120 s over the immobilized albumins, followed by 800 s for dissociation. […] Regeneration of the chip surface between cycles was accomplished with two 30 second pulses of 10 mM Glycine, pH 2.0. Kinetic traces of reference-subtracted sensorgrams were fit to a 1:1 binding model for affinity using the Biaevaluation software. Only the dissociation phase was fit for determination of off-rates.

[3] = target: T2, human serum albumin (HSA), full length (human, UniProt P02768 25-609); assay: SPR, immobilized HSA, 500 nM Adnectin, 25 C
T2 construct: mature; Immobilized on CM5 chip (SPR) or coated on plates (ELISA)
Procedure: as §1

[4] = target: T1, mouse serum albumin (MSA), full length; assay: direct binding ELISA, coated MSA, anti-His-HRP
Procedure: (§2) Direct binding ELISA assays were conducted as follows. Full length human and murine serum albumin at 10ug/ml in PBS were coated on Nunc Maxisorp plates overnight at 4° C. Plates were blocked in casein/PBS buffer. PKE Adnectins were allowed to bind over a 4-point concentration range of 0.032-4 uM for HSA and 0.008-1 uM for MSA. Bound Adnectin was detected by anti-His antibody conjugated with HRP (horseradish peroxidase) diluted 1:1500 in casein/PBS. Plates were developed with TMB substrate and absorbance read at 450 nm. Adnectins were binned as high, medium and low affinity binders based on the observed Ymax of the concentration response curves.

[5] = target: T1, mouse serum albumin (MSA), full length; assay: SPR, immobilized MSA, 500 nM Adnectin, 25 C
Procedure: as §1

[6] = target: T1, mouse serum albumin (MSA), full length; assay: SPR off-rate, immobilized MSA, 500 nM Adnectin, 25 C
Procedure: as §1

[7] = target: T2, human serum albumin (HSA), full length; assay: SPR off-rate ratio to parent ADX_7016_A01, HSA, 25 C
Procedure: as §1

[8] = target: T2, human serum albumin (HSA), full length; assay: SPR off-rate, immobilized HSA, 500 nM Adnectin, 25 C
Procedure: as §1

[9] = target: T1, mouse serum albumin (MSA), full length; assay: SPR kinetics, immobilized albumin, 1:1 fit, 37 C
Procedure: as §1, with “The SPR” for “Measurements were conducted by SPR and ELISA. SPR”, “length human, mouse, rat and cynomolgus monkey serum” for “length HSA or mouse”, “albumin were” for “albumin was”

[10] = target: T3, rat serum albumin (rat SA), full length (rat, UniProt P02770 25-608); assay: SPR kinetics, immobilized albumin, 1:1 fit, 37 C
T3 construct: mature; Immobilized on CM5 chip (SPR); also called RSA
Procedure: as §1, with “The SPR” for “Measurements were conducted by SPR and ELISA. SPR”, “length human, mouse, rat and cynomolgus monkey serum” for “length HSA or mouse”, “albumin were” for “albumin was”

[11] = target: T4, cynomolgus monkey serum albumin (cynoSA), full length (cynomolgus monkey, UniProt A2V9Z4 25-608); assay: SPR kinetics, immobilized albumin, 1:1 fit, 37 C
T4 construct: mature; Immobilized on CM5 chip (SPR); the cynoSA experiment used a different Biacore chip; also called CySA
Procedure: as §1, with “The SPR” for “Measurements were conducted by SPR and ELISA. SPR”, “length human, mouse, rat and cynomolgus monkey serum” for “length HSA or mouse”, “albumin were” for “albumin was”

[12] = target: T2, human serum albumin (HSA), full length; assay: SPR kinetics, immobilized albumin, 1:1 fit, 37 C
Procedure: as §1, with “The SPR” for “Measurements were conducted by SPR and ELISA. SPR”, “length human, mouse, rat and cynomolgus monkey serum” for “length HSA or mouse”, “albumin were” for “albumin was”

[13] = target: T4, cynomolgus monkey serum albumin …; assay: SPR kinetics (Biacore, CM5): ligand '15ug/ml CynoSA in Acetate 5.0' immobilised, Adnectin concentration series as analyte, 37 C, 1:1 binding model; curve Fc=2-1 [panel Cyno SA]
Procedure: as §1, with “The SPR” for “Measurements were conducted by SPR and ELISA. SPR”, “length human, mouse, rat and cynomolgus monkey serum” for “length HSA or mouse”, “albumin were” for “albumin was”

[14] = target: T1, mouse serum albumin (MSA), full length; assay: direct binding ELISA, coated MSA, anti-His-HRP; parameters: unit not given here; remark: listed apart in the source
Procedure: as §2

[15] = target: T1, mouse serum albumin (MSA), full length; assay: SPR off-rate, immobilized MSA, 500 nM Adnectin, 25 C; remark: listed apart in the source
Procedure: as §1

[16] = target: T1, mouse serum albumin (MSA), full length; assay: SPR off-rate ratio to parent ADX_7016_A01, MSA, 25 C; remark: listed apart in the source
Procedure: as §1

[17] = target: T2, human serum albumin (HSA), full length; assay: SPR off-rate ratio to parent ADX_7016_A01, HSA, 25 C; remark: listed apart in the source
Procedure: as §1

[18] = target: T2, human serum albumin (HSA), full length; assay: direct binding ELISA, coated HSA, anti-His-HRP; parameters: unit not given here
Procedure: as §2

[19] = target: T2, human serum albumin (HSA), full length; assay: SPR off-rate, immobilized HSA, 500 nM Adnectin, 25 C; remark: listed apart in the source
Procedure: as §1

[20] = target: T4, cynomolgus monkey serum albumin …; assay: SPR kinetics (Biacore, CM5): ligand '15ug/ml Cyno SA in Acetate 5.0' immobilised, Adnectin concentration series as analyte, 37 C, 1:1 binding fit; curve Fc=2-1 [panel Cyno SA]
Procedure: as §1, with “The SPR” for “Measurements were conducted by SPR and ELISA. SPR”, “length human, mouse, rat and cynomolgus monkey serum” for “length HSA or mouse”, “albumin were” for “albumin was”

[21] = target: T4, cynomolgus monkey serum albumin …; assay: SPR kinetics (Biacore, CM5): ligand '15ug/ml CynoSA in Acetate5.0' immobilised, Adnectin concentration series as analyte, 37 C, 1:1 binding model; curve Fc=2-1 [panel Cyno SA]
Procedure: as §1, with “The SPR” for “Measurements were conducted by SPR and ELISA. SPR”, “length human, mouse, rat and cynomolgus monkey serum” for “length HSA or mouse”, “albumin were” for “albumin was”

T4 sequence (A2V9Z4 25-608): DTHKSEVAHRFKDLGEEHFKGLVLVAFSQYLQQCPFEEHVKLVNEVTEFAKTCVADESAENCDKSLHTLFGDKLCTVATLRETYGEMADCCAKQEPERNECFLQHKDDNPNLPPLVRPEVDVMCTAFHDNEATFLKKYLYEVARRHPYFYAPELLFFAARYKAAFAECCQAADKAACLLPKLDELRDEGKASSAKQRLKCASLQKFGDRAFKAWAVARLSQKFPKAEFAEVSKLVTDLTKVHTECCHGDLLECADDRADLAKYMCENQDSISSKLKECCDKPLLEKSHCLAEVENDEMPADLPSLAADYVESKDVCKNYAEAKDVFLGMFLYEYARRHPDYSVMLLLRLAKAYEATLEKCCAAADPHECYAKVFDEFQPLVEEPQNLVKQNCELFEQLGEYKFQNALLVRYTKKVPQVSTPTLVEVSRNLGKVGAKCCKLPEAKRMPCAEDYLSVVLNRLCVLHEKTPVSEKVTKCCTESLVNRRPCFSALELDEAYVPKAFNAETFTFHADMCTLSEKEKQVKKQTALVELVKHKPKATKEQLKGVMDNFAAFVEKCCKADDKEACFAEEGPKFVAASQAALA
T2 sequence (P02768 25-609): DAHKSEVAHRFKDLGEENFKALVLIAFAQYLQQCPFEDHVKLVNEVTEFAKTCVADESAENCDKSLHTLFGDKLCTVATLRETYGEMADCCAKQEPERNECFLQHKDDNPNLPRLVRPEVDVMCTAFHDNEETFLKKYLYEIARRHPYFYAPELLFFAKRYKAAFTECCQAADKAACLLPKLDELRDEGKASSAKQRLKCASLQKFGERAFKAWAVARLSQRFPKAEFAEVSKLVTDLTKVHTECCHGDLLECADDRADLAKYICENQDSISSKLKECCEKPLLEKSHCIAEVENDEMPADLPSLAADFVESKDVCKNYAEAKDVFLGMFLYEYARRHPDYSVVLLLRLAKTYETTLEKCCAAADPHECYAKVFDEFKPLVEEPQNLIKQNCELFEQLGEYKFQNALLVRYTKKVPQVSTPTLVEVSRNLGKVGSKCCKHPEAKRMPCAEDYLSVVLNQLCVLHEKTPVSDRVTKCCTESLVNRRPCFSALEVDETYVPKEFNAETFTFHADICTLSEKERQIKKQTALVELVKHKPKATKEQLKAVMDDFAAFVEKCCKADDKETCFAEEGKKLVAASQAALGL
T3 sequence (P02770 25-608): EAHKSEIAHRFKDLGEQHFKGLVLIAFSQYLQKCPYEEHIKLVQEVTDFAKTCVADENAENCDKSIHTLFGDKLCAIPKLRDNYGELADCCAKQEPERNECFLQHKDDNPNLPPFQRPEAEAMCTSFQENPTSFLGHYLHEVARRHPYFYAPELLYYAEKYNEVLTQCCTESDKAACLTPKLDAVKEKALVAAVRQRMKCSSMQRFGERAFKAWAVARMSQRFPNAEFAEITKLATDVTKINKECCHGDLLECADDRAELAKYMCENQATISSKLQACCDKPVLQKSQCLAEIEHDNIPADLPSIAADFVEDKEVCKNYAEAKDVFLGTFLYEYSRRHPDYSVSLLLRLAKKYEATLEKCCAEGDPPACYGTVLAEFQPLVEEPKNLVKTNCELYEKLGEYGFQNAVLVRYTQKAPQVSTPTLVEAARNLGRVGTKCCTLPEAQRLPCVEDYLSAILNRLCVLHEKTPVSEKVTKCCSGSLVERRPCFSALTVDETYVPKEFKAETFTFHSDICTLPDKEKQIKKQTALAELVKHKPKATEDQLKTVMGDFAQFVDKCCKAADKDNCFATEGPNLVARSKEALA

MSA DB ELISA (OD450) Ymax obs [14]: 27
MSA DB ELISA (OD450) Ymin obs [14]: 1
koff [15]: 0.0262 s⁻¹
MSA kd/Parent kd [16]: 61.2
HSA kd/Parent kd [17]: 34
MSA DB ELISA YMIN OBS (OD450) [4]: 1 OD450
HSA DB ELISA (OD450) Ymax obs [18]: 16
HSA DB ELISA (OD450) Ymin obs [18]: 2
koff [19]: 0.00921 s⁻¹
koff [6]: 0.0262 s⁻¹
koff [8]: 0.00921 s⁻¹
B4: ADX_6727_B09 (L38T/K85T) (designed binder)
chain: MGVSDVPRDLEVVAATPTSLLISWDAPAVTVRYYRITYGREVQKYSDTGPLYIYQEFTVPGSKSTATISGLKPGVDYTITVYAVTGSGESPASSTPISINYRTEIDKPSQHHHHHH
notes: Full His6-tagged entry

Kd [20]: 1.08 µM
koff [20]: 0.0444 s⁻¹
kon [20]: 41200 M⁻¹ s⁻¹
MSA kd/Parent kd [2]: 41.9
HSA Binding (RU) [3]: 14 RU
MSA DB ELISA YMIN OBS (OD450) [4]: 1 OD450
MSA Binding (RU) [5]: 33 RU
koff [6]: 0.0179 s⁻¹
Kd [9]: 0.265 µM
koff [9]: 0.0305 s⁻¹
kon [9]: 115000 M⁻¹ s⁻¹
Kd [10]: 1.34 µM
koff [10]: 0.119 s⁻¹
kon [10]: 89100 M⁻¹ s⁻¹
Kd [11]: 1.08 µM
koff [11]: 0.0444 s⁻¹
kon [11]: 41200 M⁻¹ s⁻¹
Kd [12]: 0.889 µM
koff [12]: 0.0285 s⁻¹
kon [12]: 32100 M⁻¹ s⁻¹
HSA kd/Parent kd [7]: 79.4
koff [8]: 0.0214 s⁻¹
B6: ADX_7016_C03 (Y44Q) (designed binder)
chain: B4 chain with T48L, Y54Q, T95K
notes: Full His6-tagged entry; also called 6727_B03

MSA kd/Parent kd [2]: 5
HSA Binding (RU) [3]: 33 RU
Kd [21]: 0.0681 µM
koff [21]: 0.00426 s⁻¹
kon [21]: 62500 M⁻¹ s⁻¹
MSA Binding (RU) [5]: 64 RU
koff [6]: 0.00213 s⁻¹
Kd [9]: 0.0268 µM
koff [9]: 0.00629 s⁻¹
kon [9]: 235000 M⁻¹ s⁻¹
Kd [10]: 0.104 µM
koff [10]: 0.0346 s⁻¹
kon [10]: 331000 M⁻¹ s⁻¹
Kd [11]: 0.0681 µM
koff [11]: 0.00426 s⁻¹
kon [11]: 62500 M⁻¹ s⁻¹
Kd [12]: 0.0837 µM
koff [12]: 0.0032 s⁻¹
kon [12]: 38200 M⁻¹ s⁻¹
HSA kd/Parent kd [7]: 5.6
koff [8]: 0.0015 s⁻¹
B7: ADX_7016_G01 (Y44S) (designed binder)
chain: B4 chain with T48L, Y54S, T95K
notes: Full His6-tagged entry; also called 6727_G02

Continued, binder first:

B1: ADX_6734_A02 (I43A/Y44E) (designed binder)
chain: B4 chain with T48L, I53A, Y54E, T95K
MSA DB ELISA (OD450) Ymax obs [1]: 100
MSA DB ELISA (OD450) Ymin obs [1]: 3

B2: ADX_6727_D03 (L41S) (designed binder)
chain: B4 chain with T48L, L51S, T95K
notes: Full His6-tagged entry
MSA kd/Parent kd [2]: 31.3
HSA Binding (RU) [3]: 24 RU
MSA DB ELISA YMIN OBS (OD450) [4]: 1 OD450
MSA Binding (RU) [5]: 43 RU
koff [6]: 0.0134 s⁻¹
HSA kd/Parent kd [7]: 28.9
koff [8]: 0.00777 s⁻¹

B3: ADX_7016_E02 (L38T) (designed binder)
chain: B4 chain with T95K
notes: Full His6-tagged entry; also called 6727_E08
MSA kd/Parent kd [2]: 57.8
HSA Binding (RU) [3]: 25 RU
MSA DB ELISA YMIN OBS (OD450) [4]: 1 OD450
MSA Binding (RU) [5]: 30 RU
koff [6]: 0.0248 s⁻¹
Kd [9]: 0.502 µM
koff [9]: 0.0343 s⁻¹
kon [9]: 68400 M⁻¹ s⁻¹
Kd [10]: 1.13 µM
koff [10]: 0.0558 s⁻¹
kon [10]: 49400 M⁻¹ s⁻¹
Kd [11]: 1.43 µM
koff [11]: 0.171 s⁻¹
kon [11]: 119000 M⁻¹ s⁻¹
Kd [12]: 0.666 µM
koff [12]: 0.0161 s⁻¹
kon [12]: 24200 M⁻¹ s⁻¹
HSA kd/Parent kd [7]: 30.3
Kd [13]: 1.43 µM
koff [13]: 0.171 s⁻¹
kon [13]: 119000 M⁻¹ s⁻¹
koff [8]: 0.00815 s⁻¹

B5: ADX_6727_H06 (Y44Q/K85T) (designed binder)
chain: B4 chain with T48L, Y54Q
notes: Full His6-tagged entry
MSA kd/Parent kd [2]: 33.5
HSA Binding (RU) [3]: 24 RU
MSA DB ELISA YMIN OBS (OD450) [4]: 1 OD450
MSA Binding (RU) [5]: 43 RU
koff [6]: 0.0143 s⁻¹
HSA kd/Parent kd [7]: 52.7
koff [8]: 0.0142 s⁻¹

B8: ADX_6727_H10 (L41S/K85S) (designed binder)
chain: B4 chain with T48L, L51S, T95S
notes: Full His6-tagged entry
MSA kd/Parent kd [2]: 34
HSA Binding (RU) [3]: 19 RU
MSA DB ELISA YMIN OBS (OD450) [4]: 1 OD450
MSA Binding (RU) [5]: 35 RU
koff [6]: 0.0146 s⁻¹
HSA kd/Parent kd [7]: 32
koff [8]: 0.0086 s⁻¹
